Where “and” joins values, the source holds several entries; their conditions need not be identical. Identical values can stand only once.
Target: T1, CD36 (His-tagged recombinant human protein, Sino Biological, Life technologies, 70-80 kDa) (human, UniProt P16671 30-439)
T1 construct: CD36, class B scavenger receptor, human, recombinant; also called Human recombinant CD36
Assay: SPR; Biacore T100; CD36 immobilized by amine coupling on a C1 chip (1000 RU); S100A12 species as analyte 0.62-50.0 nM, single cycle kinetics, 30 µL/min, 25 °C; HBS-P+ with 350 µM CaCl2; two-state reaction model
Conditions: both partners purified

T1 sequence (P16671 30-439): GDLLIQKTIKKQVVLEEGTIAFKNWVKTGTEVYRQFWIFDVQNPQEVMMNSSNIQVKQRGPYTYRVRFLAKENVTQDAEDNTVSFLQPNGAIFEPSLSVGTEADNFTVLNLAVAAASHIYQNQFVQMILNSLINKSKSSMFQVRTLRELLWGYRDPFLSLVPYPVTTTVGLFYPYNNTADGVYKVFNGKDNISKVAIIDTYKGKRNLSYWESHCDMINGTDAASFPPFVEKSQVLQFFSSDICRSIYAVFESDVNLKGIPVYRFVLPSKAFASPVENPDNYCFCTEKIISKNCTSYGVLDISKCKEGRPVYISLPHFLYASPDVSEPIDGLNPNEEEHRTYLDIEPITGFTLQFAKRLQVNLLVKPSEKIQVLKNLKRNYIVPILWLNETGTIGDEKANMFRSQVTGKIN

B1: commercially available native human S100A12 protein (nS100A12) (natural protein, UniProt P80511 1-92, looked up)
chain: MTKLEEHLEGIVNIFHQYSVRKGHFDTLSKGELKQLLTKELANTIKNIKDKAVIDEIFQGLDANQDEQVDFQEFISLVAIALKAAHYHTHKE
notes: S100A12, human, untagged; Called 'native' in the methods and 'untagged recombinant' in the results; also called human, untagged recombinant nS100A12
Question: B1 was tested. Which Kd did it give?
Answer: 1.04 nM and 0.9 nM

— article PMC5241339, “Insights into binding of S100 proteins to scavenger receptors: class B scavenger receptor CD36 binds S100A12 with high affinity” (Amino Acids, 2016)
